According to patent publication US20170260282A1 (Janssen / Centocor, published 2017):

Legend:
[1] = biological target: T1, Human GITR (cell surface) (human, UniProt Q9Y5U5 26-241); test: cell-based or functional assay
T1 sequence: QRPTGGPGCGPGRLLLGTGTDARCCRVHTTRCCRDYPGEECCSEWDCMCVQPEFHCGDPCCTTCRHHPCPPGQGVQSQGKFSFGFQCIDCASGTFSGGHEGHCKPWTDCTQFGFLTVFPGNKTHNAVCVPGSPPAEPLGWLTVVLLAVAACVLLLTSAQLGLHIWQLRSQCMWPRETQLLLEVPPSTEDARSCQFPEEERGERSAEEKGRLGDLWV

Cyno GITR (cell surface) [2] = biological target: T2, Cyno GITR (cell surface) (cynomolgus monkey); test: cell-based or functional assay
T2 chain: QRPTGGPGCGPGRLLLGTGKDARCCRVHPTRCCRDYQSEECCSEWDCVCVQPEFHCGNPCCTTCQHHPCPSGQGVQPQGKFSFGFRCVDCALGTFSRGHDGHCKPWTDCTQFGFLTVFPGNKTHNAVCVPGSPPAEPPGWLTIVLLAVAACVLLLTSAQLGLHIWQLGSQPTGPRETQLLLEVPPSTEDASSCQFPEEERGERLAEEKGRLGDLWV

Cyno GITR (cell surface) [3] = biological target: T2, Cyno GITR (cell surface); test: MSD-CAT, cyno against human GITR, study 1
Procedure: (§1) The MSD-CAT was developed in-house as a label-free method to determine affinity using intact cells in a high throughput format. The parental HEK293 cell line without any GITR expressed was used as a negative control.
(§2) These samples were prepared in DMEM Glutamax medium (Invitrogen, Prod #10569-044) with 0.05% Azide, 1% BSA, 3 mM EDTA. After equilibration the plates were centrifuged for 5 min at 2000 rpm and free anti-GITR mAbs are detected in the supernatant. The free anti-GITR mAbs in the mixture were detected by electrochemiluminescence (ECL) using MSD reader instrument. For detection, MSD-Streptavidin plates (MesoScale Discovery, Prod #L11SA-1) were coated with 0.1 μg/mL of biotinylated human-GITR antigen in assay buffer at 50 μL/well and equilibrated overnight (˜16 hr at 4° C.). […] After 1 hr, the plates were washed three times with wash buffer and 150 μL of MSD Read Buffer (MesoScale Discovery Cat #R92TC-1; prepared by diluting 1:3 of stock into d. H2O) were added per well. The plates were read immediately on the MSD Sector Imager 6000 Reader for luminescence levels. ECL signal detected by MSD was expressed in term of % free antibody in the mixture and the data was analyzed to determine affinity using a user defined equation (derived from the law of mass action) introduced in Prism software.

[4] = biological target: T1, Human GITR (cell surface); test: MSD-CAT, GITR-expressing HEK293 cells, study 1
Procedure: as §1, §2

Cyno GITR (cell surface) [5] = biological target: T2, Cyno GITR (cell surface); test: MSD-CAT, GITR-expressing HEK293 cells, study 1
Procedure: as §1, §2

[6] = biological target: T3, recombinant human GITR ECD (human, UniProt Q9Y5U5 26-161); test: SPR (ProteOn XPR36), mAb captured by anti-human Fc, GITR ECD as analyte, 25 °C
T3 construct: also called human GITR extracellular domain
T3 sequence: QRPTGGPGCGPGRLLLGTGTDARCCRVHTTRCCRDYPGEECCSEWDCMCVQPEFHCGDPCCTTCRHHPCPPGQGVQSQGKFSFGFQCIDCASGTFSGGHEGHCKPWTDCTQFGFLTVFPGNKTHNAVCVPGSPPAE
Procedure: (§3) The affinities of the GITR antibodies to recombinant human GITR ECD were measured by Surface Plasmon Resonance (SPR) using a ProteOn XPR36 protein interaction array system (BioRad).
(§4) The rates of GITR ECD association and dissociation were measured for each variant. The biosensor surface was prepared by covalently coupling Goat anti-Human IgG (Fc) to the surface of a GLC chip (BioRad) using the manufacturer instructions for amine-coupling chemistry. Approximately 8800 RU (response units) of Goat anti-Human IgG (Fc) antibody (Jackson ImmunoResearch laboratories Prod #109-005-098) were immobilized. […] Since the mixture was 1:1 about 50% of these RU immobilized are expected to be goat anti-human Fc. The binding kinetics experiments were performed at 25° C. in running buffer (PBS pH 7.4, 0.005% P20, 3 mM EDTA). […] (1:3) serial dilutions of human GITR ECD or cyno GITR ECD starting at 100 nM were prepared in running buffer. […] The reference spots (Goat anti-Human IgG (Fc)-modified surface) containing no candidate captured were used as a reference surface. Capture of mAb was followed by 3 min injection (association phase) of antigen at 40 μL/min, followed by 10 min of buffer flow (dissociation phase). The chip surface was regenerated by injection of 0.85% phosphoric acid at 100 μL/min. Data were processed on the instrument software. Double reference subtraction of the data was performed by subtracting the curves generated by buffer injection from the reference-subtracted curves for analyte injections. Kinetic analysis of the data was performed using 1:1 Langmuir binding model with group fit. The result for each mAb was reported in the format of kon or on-rate, koff or off-rate, and KD (Equilibrium dissociation constant) (Table 7).

cyno GITR ECD = biological target: T4, cyno GITR ECD (cynomolgus monkey); test: as above
T4 construct: Only the extracellular domain stood in the SPR assay
T4 chain: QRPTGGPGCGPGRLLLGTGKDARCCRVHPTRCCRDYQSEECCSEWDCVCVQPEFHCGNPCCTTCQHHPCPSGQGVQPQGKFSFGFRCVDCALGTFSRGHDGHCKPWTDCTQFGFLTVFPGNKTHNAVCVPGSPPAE
Procedure: as §3, §4

ADCC EC50, HEK293-hGITR target cells, NK-92 FcγRIIIa 176V/V effector cells [1]: 1.9 ng/mL | ADCC EC50, HEK293-cyno GITR target cells, NK-92 FcγRIIIa 176V/V effector cells (Cyno GITR (cell surface) [2]): 2.5 ng/mL | KD Fold Difference (Cy/Hu) (Cyno GITR (cell surface) [3]): 11.4 fold | Kd [4]: ~10 pM | Kd (Cyno GITR (cell surface) [5]): 115 pM | Kd [6]: 20.2 pM | koff [6]: 2.02e-05 s⁻¹ | kon [6]: 996000 M⁻¹ s⁻¹ | Kd (cyno GITR ECD): 8600 pM | koff (cyno GITR ECD): 0.00257 s⁻¹ | kon (cyno GITR ECD): 299000 M⁻¹ s⁻¹
B1: TRGB153 (antibody, human IgG1, kappa, V domains shown)
VH: QVQLVQSGAEVKKPGSSVKVSCKASGGTFSSYAISWVRQAPGQGLEWMGGIIPIFGTANYAQKFQGRVTITADESTSTAYMELSSLRSEDTAVYYCARHAWLGHLDYWGQGTLVTVSS
VL: EIVLTQSPATLSLSPGERATLSCRASQSVSSYLAWYQQKPGQAPRLLIYDASNRATGIPARFSGSGSGTDFTLTISSLEPEDFAVYYCQQRSNWPLTFGQGTKVEIKR
notes: human IgG1/kappa
